Measured values published in the supplement of paper PMC10724198.
± gives the standard deviation of the averaged measurements.
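Further: PSI is a weighted mean of sequencing reads over stability bins, variants kept only with over 10 reads, mCherry proximal and sfGFP distal, peptide attached via GGGS linker.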

The sequences below were run on Saccharomyces cerevisiae (assay: protein stability index of tFT-peptide fusion (C-terminal peptide) (PSI (0-1 scale)); higher = more stable (slower turnover)). Conditions: genetic background: wild type; temperature: 30 C.
For PSLPWSGPPVPC, the protein stability index was 0.664 ± 0.013. PSLQPPLHYPPP was tested, and the protein stability index was 0.6448 ± 0.0044. PSLRPPPLPPLS was tested, and the protein stability index was 0.7214 ± 0.0025. With PSPAALLPPPPP the protein stability index was 0.643 ± 0.014. PSPALPSLSTPL was tested, and the protein stability index was 0.669 ± 0.047. Sequence PSPAPPPLPFPR has a protein stability index of 0.72 ± 0.038. PSPAPTPPTPHS was tested, and the protein stability index was 0.721 ± 0.28. For PSPCRPPHTSAG, the protein stability index was 0.646 ± 0.048. In the case of PSPFPCVFRFSA, the protein stability index is reported as 0.635 ± 0.029. With PSPHRFPAPTLP the protein stability index was 0.687 ± 0.039. For PSPLPPPVSRPP, the protein stability index was 0.691 ± 0.049. For PSPLRASPTAVF, the protein stability index was 0.62 ± 0.013. In the case of PSPPAPFPVCLL, the protein stability index is reported as 0.617 ± 0.011. Work on PSPPFFLTAASL yielded a protein stability index of 0.668 ± 0.01. PSPPPAPPPHSP showed a protein stability index of 0.665 ± 0.022. PSPPPLSSPPSP gave a protein stability index of 0.6425 ± 0.003. In the case of PSPPPPPALPSH, the protein stability index is reported as 0.66 ± 0.13. For PSPPPPPPPQPS, the protein stability index was 0.722 ± 0.059. Sequence PSPPPPTVPHPP has a protein stability index of 0.6779 ± 0.00096. In the case of PSPPSRFPPCTP, the protein stability index is reported as 0.76987 ± 0.00013. PSPPTLILPPHP was tested, and the protein stability index was 0.663 ± 0.0095. Sequence PSPPTPHPPCRS has a protein stability index of 0.746 ± 0.013. For PSPPYLIPHALS, the protein stability index was 0.676 ± 0.041. With PSPRPPPSPPLP the protein stability index was 0.695 ± 0.037. Sequence PSPSAPPPLSPL has a protein stability index of 0.546 ± 0.052. PSPSFLVFATSY gave a protein stability index of 0.628 ± 0.027. Sequence PSPSPPLAPPVT has a protein stability index of 0.647 ± 0.038. With PSPSPPRLLPPP the protein stability index was 0.7 ± 0.031. PSPSPSPPLPPP showed a protein stability index of 0.652 ± 0.0077. Sequence PSPSRAPPMAPS has a protein stability index of 0.6982 ± 0.0013. In the case of PSPVLLPPFVSP, the protein stability index is reported as 0.706 ± 0.0089. Sequence PSRIRPPTASPP has a protein stability index of 0.76 ± 0.061. PSRPLPPPPPPL showed a protein stability index of 0.765 ± 0.14. For PSRPPPARSSPP, the protein stability index was 0.652 ± 0.0069. PSRPPRLPPASF was tested, and the protein stability index was 0.681 ± 0.046. Work on PSRSLSSPPSSR yielded a protein stability index of 0.64 ± 0.019. Work on PSSCSPPPSSPS yielded a protein stability index of 0.692 ± 0.064. PSSPPLPPPSPP showed a protein stability index of 0.644 ± 0.03. Work on PSSPPSLSPPLP yielded a protein stability index of 0.7177 ± 0.0034. Work on PSSPPVLPLHFH yielded a protein stability index of 0.728 ± 0.019. In the case of PSSPSPLRPPSP, the protein stability index is reported as 0.666 ± 0.096. For PSSSDHDTRQKK, the protein stability index was 0.708 ± 0.058. In the case of PSSSFFFLSSYL, the protein stability index is reported as 0.706 ± 0.043. Work on PSTHPPTLPRPC yielded a protein stability index of 0.712 ± 0.024. For PSTILLRYRPSV, the protein stability index was 0.825 ± 0.16. Work on PSTLPLRLPRMF yielded a protein stability index of 0.644 ± 0.057. In the case of PSTPFAPPSATY, the protein stability index is reported as 0.685 ± 0.014. In the case of PSWLLFGVHGGW, the protein stability index is reported as 0.71 ± 0.056. Work on PTGQSSVESGAG yielded a protein stability index of 0.693 ± 0.088. PTGRGRSAYLVL gave a protein stability index of 0.6875 ± 0.0058. PTHCWSGLSGKG gave a protein stability index of 0.703 ± 0.016. PTHPHLTLTETP was tested, and the protein stability index was 0.687 ± 0.017. PTIMYIRKTEER showed a protein stability index of 0.692 ± 0.043. Work on PTIRKDPLGFLR yielded a protein stability index of 0.707 ± 0.0084. PTKKRQHSDRRK showed a protein stability index of 0.644 ± 0.013. For PTLFSLLLRAFL, the protein stability index was 0.623 ± 0.13. In the case of PTLSPRSPRFAS, the protein stability index is reported as 0.755 ± 0.035. With PTNISEKVGAKS the protein stability index was 0.671 ± 0.02. PTPHPHTGSLEG gave a protein stability index of 0.651 ± 0.011. Work on PTPHTTHPQNNT yielded a protein stability index of 0.729 ± 0.0062. PTPLPRISLTSV showed a protein stability index of 0.667 ± 0.025. PTPPLLPPAPSP showed a protein stability index of 0.707 ± 0.048. With PTPPPPPSPFAL the protein stability index was 0.804 ± 0.15. For PTPPSPTPLPAT, the protein stability index was 0.679 ± 0.043. PTPSDRLPPPSH showed a protein stability index of 0.712 ± 0.0098. PTPVAHSLSLRI gave a protein stability index of 0.637 ± 0.033. Work on PTRFLPVPSLFS yielded a protein stability index of 0.679 ± 0.048. Work on PTSSPAPPLFAF yielded a protein stability index of 0.67 ± 0.028. Sequence PTTAVNLPQGGT has a protein stability index of 0.68 ± 0.063. In the case of PTVPYRLVLSTV, the protein stability index is reported as 0.511 ± 0.056. Work on PVALYFIREFSP yielded a protein stability index of 0.699 ± 0.013. PVAVSQPNGPKD gave a protein stability index of 0.633 ± 0.031. PVCIRSLGTALF was tested, and the protein stability index was 0.675 ± 0.0086. Work on PVCLHPPPSHTH yielded a protein stability index of 0.737 ± 0.061. PVDFQSQGECEL gave a protein stability index of 0.695 ± 0.0089. For PVFNDDTIIRNP, the protein stability index was 0.761 ± 0.032. With PVFPPPAPTPPT the protein stability index was 0.647 ± 0.046. In the case of PVINPSCIVMMW, the protein stability index is reported as 0.65 ± 0.04. PVPPPPPPFSLP was tested, and the protein stability index was 0.727 ± 0.032. PVPPPPPPPLPP was tested, and the protein stability index was 0.6 ± 0.03. In the case of PVPPRSPPRLPF, the protein stability index is reported as 0.6673 ± 0.002. In the case of PVPPTPPHPGPL, the protein stability index is reported as 0.617 ± 0.059. For PVPRCGLPLSLP, the protein stability index was 0.685 ± 0.1. With PVSALHLSLSCP the protein stability index was 0.698 ± 0.028. For PVSFPFPISSLS, the protein stability index was 0.701 ± 0.062. Sequence PVSPRLLLRFTL has a protein stability index of 0.691 ± 0.14. With PVSVSSFFLSRF the protein stability index was 0.767 ± 0.21. In the case of PVVRISRLSFFA, the protein stability index is reported as 0.674 ± 0.007. With PWRPTNPADRSV the protein stability index was 0.61 ± 0.1. PWWSRPAASVGV showed a protein stability index of 0.659 ± 0.047. PYCVTLTLPFSS showed a protein stability index of 0.7134 ± 0.0047. For PYEFRLISRNTR, the protein stability index was 0.669 ± 0.095. PYFPLRPPSLPI showed a protein stability index of 0.6747 ± 0.0011. PYFSLFSRRSLN was tested, and the protein stability index was 0.539 ± 0.02. With PYFVGSGLVVLC the protein stability index was 0.5639 ± 0.0055. PYHARPDRSLSG was tested, and the protein stability index was 0.693 ± 0.035. PYIFLPLGRAGN was tested, and the protein stability index was 0.723 ± 0.076. With PYPVTLSRPTPT the protein stability index was 0.611 ± 0.15. Work on PYRPYLLPGSLA yielded a protein stability index of 0.632 ± 0.099. With QAANPWQRPFGW the protein stability index was 0.689 ± 0.087. QAGARGRRGVRG showed a protein stability index of 0.678 ± 0.016. For QAGGEYGLKVRW, the protein stability index was 0.805 ± 0.033. QAGKPLYVEMVS was tested, and the protein stability index was 0.609 ± 0.021. QCLTVPRSAHLP showed a protein stability index of 0.607 ± 0.05. QDLLNVSSFTRS showed a protein stability index of 0.727 ± 0.017. QEQITKETDLTH showed a protein stability index of 0.663 ± 0.013. QEREAGVTALIR showed a protein stability index of 0.707 ± 0.04. In the case of QFEEFKRGFEVA, the protein stability index is reported as 0.722 ± 0.024. For QFQRTLCGKRWV, the protein stability index was 0.685 ± 0.043. Sequence QFQVWGAPGLKR has a protein stability index of 0.711 ± 0.12. Sequence QFVSALVCLSVG has a protein stability index of 0.5534 ± 0.0015. Sequence QGCAWWGGGAGG has a protein stability index of 0.684 ± 0.038. For QGEKDFRMGSIK, the protein stability index was 0.632 ± 0.015. For QGELHRDVYIVI, the protein stability index was 0.6793 ± 0.0013. For QGKPSKWRSGSI, the protein stability index was 0.646 ± 0.048. With QGRIVSVILLSL the protein stability index was 0.557 ± 0.023. Sequence QHVDRFVGVNRE has a protein stability index of 0.715 ± 0.051. QIESNLGYWGIG was tested, and the protein stability index was 0.73819 ± 0.00032. QILPVLSKPTWI was tested, and the protein stability index was 0.736 ± 0.057. In the case of QIQNRVDYRIKL, the protein stability index is reported as 0.6353 ± 0.0031. With QITYKTLSGINM the protein stability index was 0.703 ± 0.065. QKEETGGLGGGK gave a protein stability index of 0.6609 ± 0.0025. For QKERENKHTEIE, the protein stability index was 0.645 ± 0.21. With QKINKRPTIRQI the protein stability index was 0.603 ± 0.063. For QKKELQKQKIAK, the protein stability index was 0.683 ± 0.015. Sequence QKKKEKKQKEGD has a protein stability index of 0.678 ± 0.009. For QKKKKKNKNDQK, the protein stability index was 0.686 ± 0.056. QKKKQTDHTNGV gave a protein stability index of 0.684 ± 0.03. In the case of QKKTKRGLTYTS, the protein stability index is reported as 0.67 ± 0.043. Work on QKPKKKNTTEKQ yielded a protein stability index of 0.689 ± 0.021. In the case of QKRKMIEKEKEK, the protein stability index is reported as 0.768 ± 0.098. In the case of QKWKIIRACVGC, the protein stability index is reported as 0.606 ± 0.049. Work on QLHTTENHHRRL yielded a protein stability index of 0.792 ± 0.032. QLPGTVVRYTLF was tested, and the protein stability index was 0.6408 ± 0.0041. Sequence QMTCADGVDCLL has a protein stability index of 0.589 ± 0.018. With QPAVKIGYAMAL the protein stability index was 0.644 ± 0.048. With QPITEALHDSCT the protein stability index was 0.675 ± 0.098. With QPNDIEIYTLLT the protein stability index was 0.652 ± 0.05. QPPLPPPLPGSP showed a protein stability index of 0.741 ± 0.085. In the case of QPRLRPPLPSPP, the protein stability index is reported as 0.638 ± 0.069. For QPSRQTIPWDTV, the protein stability index was 0.738 ± 0.037. In the case of QQNKKKKTRKSG, the protein stability index is reported as 0.704 ± 0.046. Work on QQRVKTYHELHL yielded a protein stability index of 0.712 ± 0.013. For QRGKKKKDKSLV, the protein stability index was 0.6424 ± 0.0025. Sequence QRPFRRRRVLCP has a protein stability index of 0.561 ± 0.054. In the case of QSAGGTRAKFGG, the protein stability index is reported as 0.658 ± 0.053. For QSRFFCDKKVWG, the protein stability index was 0.6934 ± 0.0049. Work on QSTGDFAVRQSF yielded a protein stability index of 0.753 ± 0.093. QSWEDILKINEE showed a protein stability index of 0.757 ± 0.011. QTQTAKEWAYHP showed a protein stability index of 0.686 ± 0.015. For QTRYAPCQRAPT, the protein stability index was 0.645 ± 0.08. Work on QTTKRKKKAKKK yielded a protein stability index of 0.675 ± 0.089. With QVASVTSLLPYS the protein stability index was 0.75 ± 0.032. In the case of QVGTHVTLCEDP, the protein stability index is reported as 0.679 ± 0.0098. QWGGWGVGRIEG gave a protein stability index of 0.629 ± 0.069. QYASPSISTLPV gave a protein stability index of 0.726 ± 0.065. Work on RAAPQEDFTFYR yielded a protein stability index of 0.771 ± 0.14. RAASLVSCSLIL gave a protein stability index of 0.672 ± 0.024. RACALLIVGAGG showed a protein stability index of 0.527 ± 0.0085. Work on RAFDWFFIFGWC yielded a protein stability index of 0.636 ± 0.04.
